Test results as given in article PMC4832192, “Structural basis of DNA sequence recognition by the response regulator PhoP in Mycobacterium tuberculosis”.

Key:
PhoP wild type [1] = target: T1, PhoP wild type (Mycobacterium tuberculosis, UniProt P71814 1-247); assay: ITC; 5 mM MgCl2; ITC: 20 mM HEPES pH 7.5, 100 mM NaCl, 5 mM MgCl2, 25 C, […]; details: protein: recombinant; tags: N-terminal His-tag removed with TEV; chain copies: 2
[2] = target: PhoPC (isolated effector/DNA-binding domain) (Mycobacterium tuberculosis, UniProt P71814 148-247); assay: ITC; 5 mM MgCl2; ITC: 20 mM HEPES pH 7.5, 100 mM NaCl, 5 mM MgCl2, 25 C, DNA titrated into protein; details: protein: recombinant; tags: His-tag removed (similar procedure); chain copies: 2
PhoP wild type [3] = target: T1, PhoP wild type; assay: X-ray crystal structure (2.4 A); Ca2+ at Asp71; 2:1 PhoP:DNA; ITC: 20 mM HEPES pH 7.5, 100 mM NaCl, 5 mM MgCl2, 25 C, […]; details: protein: recombinant; tags: N-terminal His-tag removed with TEV; chain copies: 2; G/C overhangs

B1: DRs3 (3-bp spacer) (dsDNA)
DNA 1: AAGTACCTCACAGCACTTCACAGCTTTCAT
DNA 2: ATGAAAGCTGTGAAGTGCTGTGAGGTACTT
Kd (PhoP wild type [1]): 0.433 ± 0.0175 µM

B2: hisG (dsDNA)
DNA 1: CGCGACCCGCAGCATGCTCACAGCTTTCGA
DNA 2: TCGAAAGCTGTGAGCATGCTGCGGGTCGCG
Kd (PhoP wild type [1]): 0.0356 ± 0.0043 µM

B3: RD6 (dsDNA)
DNA 1: AAGTACCTCACAGCACTTTCACAGCTTTCAT
DNA 2: ATGAAAGCTGTGAAAGTGCTGTGAGGTACTT
Kd [2]: 0.188 ± 0.009 µM

B4: crystal direct-repeat DNA (dsDNA)
DNA 1: GATTCACAGCTGATTCACAGCATCTA
DNA 2: CTAGATGCTGTGAATCAGCTGTGAAT
binding result (PhoP wild type [3]): binds

B5: lpqA (dsDNA)
DNA 1: GCACCTTCACCGCCCGCCCACAGCCACGCA
DNA 2: TGCGTGGCTGTGGGCGGGCGGTGAAGGTGC
Kd (PhoP wild type [1]): 0.347 ± 0.0351 µM

B6: tetra (four motifs) (dsDNA)
DNA 1: GTACCTCACAGCACTTTCACAGCTTTCTCACAGCTGATTCACAGCATCTATG
DNA 2: CATAGATGCTGTGAATCAGCTGTGAGAAAGCTGTGAAAGTGCTGTGAGGTAC
Kd (PhoP wild type [1]): 0.0022 ± 0.0007 µM

B7: DR (dsDNA)
DNA 1: ACGATTCACAGCTGATTCACAGCATCTACG
DNA 2: CGTAGATGCTGTGAATCAGCTGTGAATCGT
Kd (PhoP wild type [1]): 0.0192 ± 0.0028 µM

B8: ahpC (dsDNA)
DNA 1: TTTGCCTGACAGCGACTTCACGGCACGATG
DNA 2: CATCGTGCCGTGAAGTCGCTGTCAGGCAAA
Kd (PhoP wild type [1]): 0.104 ± 0.0072 µM

B9: tri (three motifs) (dsDNA)
DNA 1: GTACCTCACAGCACTTTCACAGCTTTCTCACAGCATCTATG
DNA 2: CATAGATGCTGTGAGAAAGCTGTGAAAGTGCTGTGAGGTAC
Kd (PhoP wild type [1]): 0.0046 ± 0.0027 µM

B10: RD6-half (dsDNA)
DNA 1: CAGAAGTCACAGCACTTGGG
DNA 2: CCCAAGTGCTGTGACTTCTG
Kd [2]: 12.2 ± 1.6 µM
